Data on one protein can be found in FireProtDB (doi:10.1021/bi051266r).

The conditions of the series: Saccharolobus solfataricus (strain ATCC 35092 / DSM 1617 / JCM 11322 / P2), Thermal, DSC, Glycine 10 mM, transition: 3, reversible: yes, whole UniProt chain shown.

Several values for one entry are separate records, joined by “and”; a condition that tells them apart may be missing. Identical values can stand only once.

B1: DNA/RNA-binding protein Alba 2 wild type, Q97ZF4 (protein)
chain: MTEKLNEIVVRKTKNVEDHVLDVIVLFNQGIDEVILKGTGREISKAVDVYNSLKDRLGDGVQLVNVQTGSEVRDRRRISYILLRLKRVY
In general, Tm refers to the temperature at which the thermal transition is half complete. Turning to B1, the “unfolding enthalpy (calorimetric)” value was 20.3 kcal/mol and 42.8 kcal/mol (pH 3.2); 47.8 kcal/mol (pH 4.2); 37.8 kcal/mol and 47.3 kcal/mol (pH 4.8); 44.8 kcal/mol and 56.9 kcal/mol (pH 5.6); 27 kcal/mol and 44.9 kcal/mol (pH 7.1). Also, the “unfolding enthalpy (van 't Hoff)” value is, setting by setting: (pH 3.2) 39.1 kcal/mol and 85.5 kcal/mol; (pH 4.2) 93.5 kcal/mol; (pH 4.8) 75.5 kcal/mol and 92.7 kcal/mol; (pH 5.6) 95.5 kcal/mol and 105 kcal/mol; (pH 7.1) 172 kcal/mol and 84.7 kcal/mol. Also, for the setting “pH 4.2”, the midpoint of thermal melting (Tm) was 116 °C.
